The target of the assay is PKCα-YFP (mouse) (UniProt P20444). The assay can be described thus: FRET or BRET.

Regarding “Erk-CFP (from UniProt P63085 1-358) (natural protein)”, the FRET efficiency is 7.19%.

The values above are taken from article PMC2921846.
